Reference: publication PMC3500527 (Cancer cell, 2012)

Key:
[1] = target: T1, profilin-2 (immunoprecipitated from cell lysates; mass spectrometry) (UniProt P35080 1-140); assay: co-IP
T1 sequence (looked up): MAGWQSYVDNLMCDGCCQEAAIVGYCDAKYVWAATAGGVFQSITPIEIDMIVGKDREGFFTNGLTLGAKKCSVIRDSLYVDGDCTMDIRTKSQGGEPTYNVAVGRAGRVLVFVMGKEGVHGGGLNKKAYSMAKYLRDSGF

Cy3-mEVL1-235aa = Cy3-mEVL1-235aa (mouse (from the label mEVL), UniProt P70429 1-235, Cy3 fluorophore (site not stated)); assay: AUC
Cy3-hVASP1-240aa = Cy3-hVASP1-240aa (human, UniProt P50552 1-240, Cy3 fluorophore (site not stated)); assay: AUC
HA-EVL = target: T2, HA-EVL (UniProt Q9UI08 1-416); assay: co-IP
T2 sequence (looked up): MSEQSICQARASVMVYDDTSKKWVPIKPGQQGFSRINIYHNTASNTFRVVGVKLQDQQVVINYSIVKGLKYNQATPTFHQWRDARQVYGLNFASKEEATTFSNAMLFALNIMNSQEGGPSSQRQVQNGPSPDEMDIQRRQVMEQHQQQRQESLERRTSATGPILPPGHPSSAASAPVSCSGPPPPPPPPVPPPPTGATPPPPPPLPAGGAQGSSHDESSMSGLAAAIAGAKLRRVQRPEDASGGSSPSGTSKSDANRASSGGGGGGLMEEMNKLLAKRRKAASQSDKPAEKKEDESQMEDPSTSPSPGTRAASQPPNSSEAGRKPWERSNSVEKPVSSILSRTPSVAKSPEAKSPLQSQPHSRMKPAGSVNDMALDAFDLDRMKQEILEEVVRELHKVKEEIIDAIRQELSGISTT

B1: EVL (immunoprecipitated with profilins; mass spectrometry) (natural protein, UniProt Q9UI08 1-416, looked up)
chain: MSEQSICQARASVMVYDDTSKKWVPIKPGQQGFSRINIYHNTASNTFRVVGVKLQDQQVVINYSIVKGLKYNQATPTFHQWRDARQVYGLNFASKEEATTFSNAMLFALNIMNSQEGGPSSQRQVQNGPSPDEMDIQRRQVMEQHQQQRQESLERRTSATGPILPPGHPSSAASAPVSCSGPPPPPPPPVPPPPTGATPPPPPPLPAGGAQGSSHDESSMSGLAAAIAGAKLRRVQRPEDASGGSSPSGTSKSDANRASSGGGGGGLMEEMNKLLAKRRKAASQSDKPAEKKEDESQMEDPSTSPSPGTRAASQPPNSSEAGRKPWERSNSVEKPVSSILSRTPSVAKSPEAKSPLQSQPHSRMKPAGSVNDMALDAFDLDRMKQEILEEVVRELHKVKEEIIDAIRQELSGISTT
fold immunoprecipitated relative to profilin-1 [1]: 7 fold

B2: mouse profilin-2a (natural protein, UniProt Q9JJV2 1-140, looked up)
chain: MAGWQSYVDNLMCDGCCQEAAIVGYCDAKYVWAATAGGVFQSITPVEIDMIVGKDREGFFTNGLTLGAKKCSVIRDSLYVDGDCTMDIRTKSQGGEPTYNVAVGRAGRVLVFVMGKEGVHGGGLNKKAYSMAKYLRDSGF
binding result (Cy3-mEVL1-235aa): binds | binding result (Cy3-hVASP1-240aa): binds

B3: profilin-2 (natural protein, human (endogenous in SUM159), UniProt P35080 1-140, looked up)
chain: MAGWQSYVDNLMCDGCCQEAAIVGYCDAKYVWAATAGGVFQSITPIEIDMIVGKDREGFFTNGLTLGAKKCSVIRDSLYVDGDCTMDIRTKSQGGEPTYNVAVGRAGRVLVFVMGKEGVHGGGLNKKAYSMAKYLRDSGF
fold immunoprecipitated relative to profilin-1 (HA-EVL): 10 fold

B4: VASP (immunoprecipitated with profilins) (natural protein, UniProt P50552 1-380, looked up)
chain: MSETVICSSRATVMLYDDGNKRWLPAGTGPQAFSRVQIYHNPTANSFRVVGRKMQPDQQVVINCAIVRGVKYNQATPNFHQWRDARQVWGLNFGSKEDAAQFAAGMASALEALEGGGPPPPPALPTWSVPNGPSPEEVEQQKRQQPGPSEHIERRVSNAGGPPAPPAGGPPPPPGPPPPPGPPPPPGLPPSGVPAAAHGAGGGPPPAPPLPAAQGPGGGGAGAPGLAAAIAGAKLRKVSKQEEASGGPTAPKAESGRSGGGGLMEEMNAMLARRRKATQVGEKTPKDESANQEEPEARVPAQSESVRRPWEKNSTTLPRMKSSSSVTTSETQPCTPSSSDYSDLQRVKQELLEEVKKELQKVKEEIIEAFVQELRKRGSP
fold immunoprecipitated relative to profilin-1 [1]: 1.8 fold
